This is an account of results in patent US20060239990A1 (published 2006).

Assay [1] deals with T1, GST-RB fusion protein (UniProt P06400 1-928).
T1 construct: not shown: glutathione S-transferase tag of the pGEX-6P vector (Amersham/Pharmacia)
T1 sequence (looked up): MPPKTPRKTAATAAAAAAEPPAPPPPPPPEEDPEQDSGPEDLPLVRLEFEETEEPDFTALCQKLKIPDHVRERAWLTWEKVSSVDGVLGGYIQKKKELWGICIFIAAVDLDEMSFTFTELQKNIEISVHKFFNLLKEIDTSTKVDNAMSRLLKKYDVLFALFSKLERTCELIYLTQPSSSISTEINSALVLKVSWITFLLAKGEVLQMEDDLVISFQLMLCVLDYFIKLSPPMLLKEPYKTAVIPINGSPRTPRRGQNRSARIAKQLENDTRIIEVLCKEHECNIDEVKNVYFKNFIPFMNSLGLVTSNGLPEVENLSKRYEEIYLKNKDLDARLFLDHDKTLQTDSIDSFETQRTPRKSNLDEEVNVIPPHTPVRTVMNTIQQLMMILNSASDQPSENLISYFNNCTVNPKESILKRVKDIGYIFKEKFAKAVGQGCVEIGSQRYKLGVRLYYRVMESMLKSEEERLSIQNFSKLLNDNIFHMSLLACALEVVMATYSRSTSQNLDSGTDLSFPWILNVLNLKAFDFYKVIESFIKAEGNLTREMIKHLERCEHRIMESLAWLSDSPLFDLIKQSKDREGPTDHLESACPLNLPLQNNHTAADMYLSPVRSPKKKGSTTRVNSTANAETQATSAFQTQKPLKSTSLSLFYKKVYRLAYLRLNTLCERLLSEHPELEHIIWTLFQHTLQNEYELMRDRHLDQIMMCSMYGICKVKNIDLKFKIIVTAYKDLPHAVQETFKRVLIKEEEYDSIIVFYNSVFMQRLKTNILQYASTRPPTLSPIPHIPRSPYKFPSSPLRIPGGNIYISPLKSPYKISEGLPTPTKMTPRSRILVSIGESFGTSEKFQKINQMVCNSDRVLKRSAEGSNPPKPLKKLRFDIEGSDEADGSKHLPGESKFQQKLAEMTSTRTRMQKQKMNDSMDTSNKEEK
Put plainly: GST pull-down of S35-labeled in vitro translated protein with GST-RB.

Assay [2] has as its target T1, GST-RB fusion protein. The experiment in a line: GST pull-down of S35-labeled in vitro translated protein with GST-RB on glutathione sepharose beads. The method, then: GST-RB and GST were bound to glutathione sepharose beads and incubated with S³⁵-labeled in vitro translated PRMT1, PRMT2, PRMT3, and PRMT4. Co-precipitated labeled PRMTs were analyzed by SDS-PAGE. […] HA-tagged PRMT2 (+) or control vectors (−) were transfected in 293 cells. Cell lysates were immunoprecipitated with rabbit RB antibodies or IgG and followed by Western blot analysis using mouse HA and RB antibodies (upper panel). A Western blot using mouse HA antibodies detects HA-tagged PRMT2 (lower panel).
The crude cell lysate of the GST-fusion proteins was prepared and purified according to the manufacture's protocol (Amersham/Pharmacia). [³⁵S]-methionine-labeled protein was produced by in vitro transcription/translation using the TNT T7-coupled reticulocyte lysate system (Promega). [³⁵S]-methionine-labeled protein and GST-fusion protein bound to glutathione sepharose 4B beads were incubated in 500 μl of HNE buffer (50 mM Hepes, pH 7.8, 150 mM NaCl, 1 mM EDTA, 1 mM DTT, 1% NP40, and 1× protease inhibitor mix (Complete: Roche)) at 4° C. for 1 hour. Beads were washed four times with HNE buffer, and then analyzed on an SDS-PAGE gradient gel (4-15%). […]

B1: PRMT2(1-95) (enzyme)
chain: MATSGDCPRSESQGEEPAECSEAGLLQEGVQPEEFVAIADYAATDETQLSFLRGEKILILRQTTADWWWGERAGCCGYIPANHVGKHVDEYDPED
modifications: [35S]-methionine label
As for B1, the binding result in the assay with GST-RB fusion protein [1] is on record as “no binding”.

B2: PRMT2(1-95&219-433) (enzyme)
chain: MATSGDCPRSESQGEEPAECSEAGLLQEGVQPEEFVAIADYAATDETQLSFLRGEKILILRQTTADWWWGERAGCCGYIPANHVGKHVDEYDPEDFEFMIESILYARDAWLKEDGVIWPTMAALHLVPCSADKDYRSKVLFWDNAYEFNLSALKSLAVKEFFSKPKYNHILKPEDCLSEPCTILQLDMRTVQISDLETLRGELRFDIRKAGTLHGFTAWFSVHFQSLQEGQPPQVLSTGPFHPTTHWKQTLFMMDDPVPVHTGDVVTGSVVLQRNPVWRRHMSVALSWAVTSRQDPTSQKVGEKVFPIWR
modifications: [35S]-methionine label in the binding assay
notes: the same deletion was expressed from pVR1012 in the U2OS reporter assay; also called Int-del
For B2, the binding result with GST-RB fusion protein [1] is “no binding”.

B3: S35-labeled in vitro translated PRMT3 (human) (enzyme, UniProt O60678 2-531, looked up)
chain: CSLASGATGGRGAVENEEDLPELSDSGDEAAWEDEDDADLPHGKQQTPCLFCNRLFTSAEETFSHCKSEHQFNIDSMVHKHGLEFYGYIKLINFIRLKNPTVEYMNSIYNPVPWEKEEYLKPVLEDDLLLQFDVEDLYEPVSVPFSYPNGLSENTSVVEKLKHMEARALSAEAALARAREDLQKMKQFAQDFVMHTDVRTCSSSTSVIADLQEDEDGVYFSSYGHYGIHEEMLKDKIRTESYRDFIYQNPHIFKDKVVLDVGCGTGILSMFAAKAGAKKVLGVDQSEILYQAMDIIRLNKLEDTITLIKGKIEEVHLPVEKVDVIISEWMGYFLLFESMLDSVLYAKNKYLAKGGSVYPDICTISLVAVSDVNKHADRIAFWDDVYGFKMSCMKKAVIPEAVVEVLDPKTLISEPCGIKHIDCHTTSISDLEFSSDFTLKITRTSMCTAIAGYFDIYFEKNCHNRVVFSTGPQSTKTHWKQTVFLLEKPFSVKAGEALKGKVTVHKNKKDPRSLTVTLTLNNSTQTYGLQ
modifications: [35S]-methionine label
As for B3, the binding result in the assay with GST-RB fusion protein [2] was “no binding”.

B4: S35-labeled in vitro translated PRMT4 (CARM1) (human) (enzyme, UniProt Q86X55 2-608, looked up)
chain: AAAAAAVGPGAGGAGSAVPGGAGPCATVSVFPGARLLTIGDANGEIQRHAEQQALRLEVRAGPDSAGIALYSHEDVCVFKCSVSRETECSRVGKQSFIITLGCNSVLIQFATPNDFCSFYNILKTCRGHTLERSVFSERTEESSAVQYFQFYGYLSQQQNMMQDYVRTGTYQRAILQNHTDFKDKIVLDVGCGSGILSFFAAQAGARKIYAVEASTMAQHAEVLVKSNNLTDRIVVIPGKVEEVSLPEQVDIIISEPMGYMLFNERMLESYLHAKKYLKPSGNMFPTIGDVHLAPFTDEQLYMEQFTKANFWYQPSFHGVDLSALRGAAVDEYFRQPVVDTFDIRILMAKSVKYTVNFLEAKEGDLHRIEIPFKFHMLHSGLVHGLAFWFDVAFIGSIMTVWLSTAPTEPLTHWYQVRCLFQSPLFAKAGDTLSGTCLLIANKRQSYDISIVAQVDQTGSKSSNLLDLKNPFFRYTGTTPSPPPGSHYTSPSENMWNTGSTYNLSSGMAVAGMPTAYDLSSVIASGSSVGHNNLIPLANTGIVNHTHSRMGSIMSTGIVQGSSGAQGSGGGSTSAHYAVNSQFTMGGPAISMASPMSIPTNTMHYGS
modifications: [35S]-methionine label
Turning to B4, the binding result with GST-RB fusion protein [2] is listed as “no binding”.
